Data on 5 compounds can be found in PMC9876797, “Structures of the holo CRISPR RNA-guided transposon integration complex” (Nature, 2022).

Test [1] deals with T1, ShCAST transpososome (TnsC in complex with TnsB, TniQ, Cas12k and S15) (Scytonema hofmannii, UniProt A0A8J0PCL3).
T1 construct: recombinant proteins from E. coli, TwinStrep-SUMO vectors; assembled on sgRNA and strand-transfer DNA; about 961 kDa; 12 TnsC (major) or 13 TnsC (minor); S15 from E. coli K-12 MG1655; with Transposase TnsB; TniQ family protein TniQ; CRISPR-associated effector Cas12k; Small ribosomal subunit protein uS15 (Escherichia coli K-12 MG1655)
T1 sequence (A0A8J0PCL3 entry or part of it): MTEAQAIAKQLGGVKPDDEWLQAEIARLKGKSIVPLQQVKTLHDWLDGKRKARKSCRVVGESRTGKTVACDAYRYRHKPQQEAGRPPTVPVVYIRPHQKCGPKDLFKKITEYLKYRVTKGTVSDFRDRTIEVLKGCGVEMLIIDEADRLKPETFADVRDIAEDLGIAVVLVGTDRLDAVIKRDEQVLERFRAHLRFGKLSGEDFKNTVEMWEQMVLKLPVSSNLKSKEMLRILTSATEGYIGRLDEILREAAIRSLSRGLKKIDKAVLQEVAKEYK
T1 sequence (A0A979HMQ2 entry or part of it, further chain): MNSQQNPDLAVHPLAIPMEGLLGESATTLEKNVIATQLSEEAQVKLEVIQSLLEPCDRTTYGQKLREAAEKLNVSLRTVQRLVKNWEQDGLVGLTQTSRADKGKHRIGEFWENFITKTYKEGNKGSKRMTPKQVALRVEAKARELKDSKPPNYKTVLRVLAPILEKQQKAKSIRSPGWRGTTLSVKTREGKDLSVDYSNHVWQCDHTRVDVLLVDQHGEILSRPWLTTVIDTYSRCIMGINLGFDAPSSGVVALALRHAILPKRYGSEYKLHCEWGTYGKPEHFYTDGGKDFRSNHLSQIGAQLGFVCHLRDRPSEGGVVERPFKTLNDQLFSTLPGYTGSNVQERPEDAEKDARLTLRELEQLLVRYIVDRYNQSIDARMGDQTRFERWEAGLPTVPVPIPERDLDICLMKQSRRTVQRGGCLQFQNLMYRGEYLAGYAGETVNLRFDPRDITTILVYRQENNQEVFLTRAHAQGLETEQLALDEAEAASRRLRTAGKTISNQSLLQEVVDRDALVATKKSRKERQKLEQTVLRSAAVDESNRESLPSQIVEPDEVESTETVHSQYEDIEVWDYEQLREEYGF
T1 sequence (A0A8J0PCL5 entry or part of it, further chain): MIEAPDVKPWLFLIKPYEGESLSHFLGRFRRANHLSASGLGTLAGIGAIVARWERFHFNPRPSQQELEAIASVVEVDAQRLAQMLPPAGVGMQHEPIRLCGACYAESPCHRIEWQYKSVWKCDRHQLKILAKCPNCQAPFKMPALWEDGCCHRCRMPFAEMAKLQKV
T1 sequence (A0A8M0FGU0 entry or part of it, further chain): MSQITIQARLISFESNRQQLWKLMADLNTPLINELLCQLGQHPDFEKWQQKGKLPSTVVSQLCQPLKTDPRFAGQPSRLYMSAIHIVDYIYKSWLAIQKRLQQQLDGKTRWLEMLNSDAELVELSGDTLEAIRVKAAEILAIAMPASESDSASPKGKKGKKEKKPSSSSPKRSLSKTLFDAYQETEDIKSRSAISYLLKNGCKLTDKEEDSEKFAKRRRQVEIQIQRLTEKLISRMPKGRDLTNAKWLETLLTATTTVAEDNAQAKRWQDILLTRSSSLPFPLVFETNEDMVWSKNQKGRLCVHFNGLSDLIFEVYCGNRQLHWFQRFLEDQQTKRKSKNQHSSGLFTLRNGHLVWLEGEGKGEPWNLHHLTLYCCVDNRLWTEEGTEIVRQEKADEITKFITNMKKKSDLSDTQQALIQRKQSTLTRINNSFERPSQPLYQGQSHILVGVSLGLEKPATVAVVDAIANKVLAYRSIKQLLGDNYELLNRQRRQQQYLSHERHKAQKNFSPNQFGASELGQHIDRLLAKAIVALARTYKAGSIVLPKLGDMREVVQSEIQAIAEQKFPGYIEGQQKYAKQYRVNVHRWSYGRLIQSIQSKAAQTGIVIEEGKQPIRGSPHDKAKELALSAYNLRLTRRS
Briefly: cryo-EM structure. Type of test: binding. Conditions: ATP with Mg2+ in all TnsC protomers; 1 mM ATP, 15 mM MgCl2, pH 7.5; also minor configuration 8EA4.

Test [2] addresses TnsB (ShCAST transposase), wild type (Scytonema hofmannii). Briefly: cryo-EM structure; ShCAST transpososome assembled stepwise on streptavidin beads through desthiobiotinylated target-pot DNA (Cas12k-sgRNA, S15, TniQ, TnsC, 1 mM ATP, then TnsB with donor-pot DNA), 37 °C, 20 mM HEPES pH 7.5, 250 mM KCl, 15 mM MgCl2, eluted with biotin; major (12 TnsC) and minor (13 TnsC) configurations from one data set.

Test [3] concerns the target TnsC (ShCAST AAA+ regulator) (Scytonema hofmannii).
Target sequence in this assay (A0A8J0PCL3 entry or part of it): as the sequence (A0A8J0PCL3 entry or part of it) above
Test [4] shares this target. Briefly: cryo-EM structure; ShCAST transpososome assembled stepwise on streptavidin beads through desthiobiotinylated target-pot DNA (Cas12k-sgRNA, S15, TniQ, TnsC, 1 mM ATP, then TnsB with donor-pot DNA), 37 °C, 20 mM HEPES pH 7.5, 250 mM KCl, 15 mM MgCl2, eluted with biotin; major (12 TnsC) and minor (13 TnsC) configurations from one data set.

Several values for one entry are separate records, joined by “and”; a condition that tells them apart may be missing. Equal values may be shown once.

In the case of `Nc1ncnc2c1ncn2[C@@H]1O[C@H](COP(=O)(O)OP(=O)(O)OP(=O)(O)O)[C@@H](O)[C@H]1O` [ATP], the cryo-EM structure result in test [1] was “This improved map demonstrates that ATP is bound to all protomers”.

Regarding “TnsB (ShCAST transposase), wild type (enzyme)”, the stoichiometry N in test [2] stood at 4. Besides, in test [3], the on-target percentage of in vitro transposition (Illumina sequencing), in the absence of S15 came out at 69% and the on-target percentage of in vitro transposition (Illumina sequencing), with S15 is 99%.

TnsB R432A (enzyme): the on-target percentage of in vitro transposition (Illumina sequencing), in the absence of S15 in test [3] was less than 6%.

In turn, TnsB Y439A (enzyme) returned an on-target percentage of in vitro transposition (Illumina sequencing), in the absence of S15 in test [3] of less than 6%.

As for “TnsC (ShCAST AAA+ regulator) (natural protein)”, the stoichiometry N in test [4] is 12 and 13.
